Test results taken from publication PMC6055799.

B1: AtLNP1-RFP (Arabidopsis Lunapark 1 fused to RFP; FRET acceptor) (natural protein)
chain: MAVGEKEHEGTVVESGGEKNDSAVVLSASGEKKTTKRKGLFSRLWNAIFRVRGDDFEKRLKNISKEEATVRNRMKRRSITRRNFIRNLIAFSVFFEVIAVSYAIMTTRDEDLDWKLRSFRILPMFLLPAVAFLLYSSLVGFWRMCDRRDQHTLEKLQAEMLGKINELKERTNYYITQQLIQRYDPDPAAKAAAATVLASKLGAESGLKVFVGDESQLEPTAGKNNAKHSGGLRNRKQTNTRGNSAETTPIHHSDNESNHSGTSERITGTEQNQQMVFEHYNPQEYAAHDGSWISRIAALLVGEDPSQSYALICGNCRMHNGLARKEDFPYITYYCPHCRALNKPKHSEEHSLIAPADTLPKVSLKPMESEVINSSSSTSERGNSPIPLLHTPEIVEEVPETAENETPN

Molecular target: GFP-RTN1 (reticulon RTN1 fused to GFP; FRET donor) (Arabidopsis)
Assay: FRET or BRET; FRET-FLIM (two-photon microscope): donor GFP-RTN1 and RFP-tagged acceptor coinfiltrated into N. tabacum leaf epidermal cells, measured after 48 h in low-mobility ER continuous with the nuclear envelope; donor lifetime compared with GFP-RTN1 alone

Molecule | reduction of the donor (GFP-RTN1) fluorescence lifetime [ns]
AtLNP2-RFP (Arabidopsis Lunapark 2, splice variant AtLNP2.1, fused to RFP; FRET acceptor) (natural protein) | 0.2
B1 | 0.2
